From patent US20060002951A1

Molecular target: wild-type human APOBEC3G with a fused HA tag at the C-terminus (human) (UniProt Q9HC16)
Assay: co-immunoprecipitation with anti-HA from 293T cell lysate, Western blot with anti-CA; ratio normalized to hGag

Chain of wild-type human APOBEC3G with a fused HA tag at the C-terminus (human) (Q9HC16 whole entry, the tested form may be a part): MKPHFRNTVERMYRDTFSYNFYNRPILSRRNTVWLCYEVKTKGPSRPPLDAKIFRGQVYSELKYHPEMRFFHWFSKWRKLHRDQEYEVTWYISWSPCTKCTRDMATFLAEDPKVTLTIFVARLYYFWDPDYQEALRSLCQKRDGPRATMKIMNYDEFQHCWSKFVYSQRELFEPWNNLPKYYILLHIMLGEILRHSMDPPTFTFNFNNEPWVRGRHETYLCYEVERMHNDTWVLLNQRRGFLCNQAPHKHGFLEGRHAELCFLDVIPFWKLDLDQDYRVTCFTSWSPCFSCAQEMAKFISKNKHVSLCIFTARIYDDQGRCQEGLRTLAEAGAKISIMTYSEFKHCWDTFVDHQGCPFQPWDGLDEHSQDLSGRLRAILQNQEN

hGag deletion mutant Δ378-500 (from UniProt P04585 1-377)
reduction in the interaction of Gag with APOBEC3G against hGag: > 95%
